T1: CD96 (on 293T-CD96 cells and on T cells) (human) (UniProt P40200)
T1 sequence (looked up): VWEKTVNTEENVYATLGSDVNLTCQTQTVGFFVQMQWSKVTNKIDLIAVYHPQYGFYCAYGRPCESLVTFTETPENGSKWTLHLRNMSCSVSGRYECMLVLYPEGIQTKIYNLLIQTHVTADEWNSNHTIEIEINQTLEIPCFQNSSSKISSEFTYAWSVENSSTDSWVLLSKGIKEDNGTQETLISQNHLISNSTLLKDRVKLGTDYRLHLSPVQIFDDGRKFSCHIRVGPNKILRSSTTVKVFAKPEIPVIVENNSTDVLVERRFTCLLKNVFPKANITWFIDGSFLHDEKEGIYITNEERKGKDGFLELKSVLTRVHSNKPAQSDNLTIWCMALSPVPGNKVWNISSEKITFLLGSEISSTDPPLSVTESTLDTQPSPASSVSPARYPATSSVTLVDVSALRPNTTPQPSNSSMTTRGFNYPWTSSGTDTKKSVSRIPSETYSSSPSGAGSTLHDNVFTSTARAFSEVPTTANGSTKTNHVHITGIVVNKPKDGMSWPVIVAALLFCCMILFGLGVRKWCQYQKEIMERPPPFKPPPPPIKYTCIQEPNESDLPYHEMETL

T2: CD96-His (human, UniProt P40200-2 22-503, limits assumed)
T2 construct: not shown: His tag
T2 sequence (looked up): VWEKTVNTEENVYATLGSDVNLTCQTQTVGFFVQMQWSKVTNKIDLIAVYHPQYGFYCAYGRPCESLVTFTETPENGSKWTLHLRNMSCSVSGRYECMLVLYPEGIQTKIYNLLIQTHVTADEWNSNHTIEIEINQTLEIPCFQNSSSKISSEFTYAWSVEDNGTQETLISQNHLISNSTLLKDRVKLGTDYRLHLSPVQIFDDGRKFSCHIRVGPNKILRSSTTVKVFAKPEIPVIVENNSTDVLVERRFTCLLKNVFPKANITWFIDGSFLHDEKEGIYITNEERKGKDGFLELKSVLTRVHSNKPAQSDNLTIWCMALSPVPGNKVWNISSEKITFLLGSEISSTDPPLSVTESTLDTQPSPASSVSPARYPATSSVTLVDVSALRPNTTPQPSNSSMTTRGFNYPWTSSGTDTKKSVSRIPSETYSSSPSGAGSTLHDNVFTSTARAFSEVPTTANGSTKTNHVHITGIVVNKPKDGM


Experiments:
[1] = target: T1, CD96 (on 293T-CD96 cells and on T cells) (human); assay: flow cytometry on 293T-CD96 cells, 1.25 μg antibody, FITC anti-IgG detection
CD96-His = target: T2, CD96-His; assay: BLI (Fortebio), CD96-His antigen immobilised
[2] = target: T1, CD96 (on 293T-CD96 cells and on T cells) (human); assay: flow cytometry on T cells at day 11 (CD96 expression 96.05%), FITC anti-IgG detection
[3] = target: T3, PD1 (on CHO-PD1 cells and on T cells) (human, UniProt Q15116 25-288); assay: flow cytometry on CHO-PD1 cells
T3 construct: whole, on cells; also called PD1抗原分子
T3 sequence (Q15116 25-288): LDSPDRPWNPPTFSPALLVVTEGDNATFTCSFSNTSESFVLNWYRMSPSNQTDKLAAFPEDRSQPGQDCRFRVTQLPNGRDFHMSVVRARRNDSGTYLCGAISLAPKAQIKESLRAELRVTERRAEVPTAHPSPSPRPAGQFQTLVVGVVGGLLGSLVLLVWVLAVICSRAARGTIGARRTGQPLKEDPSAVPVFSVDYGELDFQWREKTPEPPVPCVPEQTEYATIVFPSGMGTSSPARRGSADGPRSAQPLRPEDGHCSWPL

FITC-IgG的表达率 (percent positive cells) [1] | Kd (CD96-His) | FITC-IgG的表达 (percent positive cells) [2] | binding result [3] | Binder
86.7% | 30.8 nM | 96.1% | – | CD96 ScFv-Fc (scFv, Monospecific scFv-Fc control ('单抗'); also called CD96单抗; CD96抗体; not shown: Fc of the monospecific ScFv-Fc) DVVMTQTPLTLSVTIGQPASISCKSSQSLLDSDGKTYLNWLLQRPGESPKLLIYLVSKLDSGVPDRFTGSGSGTDFTLKISRVEAEDLGVYYCLQATHFPWTFGGGTKLEIKGSTSGSGKPGSGEGSTKGQVTLKESGPGILQPSQTLSLTCSFSGFSLDTFGMGVGWIRQSSGKGLEWLAHIWWDDDKFYNPALKSRLTVSKDTSKNQVFLKIANVDTADTATYYCAHYYGSLSFDVWGTGTTVTVSS
– | – | – | binds | CD96 ScFv-Holes-PD1 ScFv-Knobes (bispecific antibody, human IgG4 S228P, Knob-into-hole heterodimer of two scFv-Fc chains) chain 1: DVVMTQTPLTLSVTIGQPASISCKSSQSLLDSDGKTYLNWLLQRPGESPKLLIYLVSKLDSGVPDRFTGSGSGTDFTLKISRVEAEDLGVYYCLQATHFPWTFGGGTKLEIKGSTSGSGKPGSGEGSTKGQVTLKESGPGILQPSQTLSLTCSFSGFSLDTFGMGVGWIRQSSGKGLEWLAHIWWDDDKFYNPALKSRLTVSKDTSKNQVFLKIANVDTADTATYYCAHYYGSLSFDVWGTGTTVTVSSESKYGPPCPPCPAPEFLGGPSVFLFPPKPKDTLMISRTPEVTCVVVDVSQEDPEVQFNWYVDGVEVHNAKTKPREEQFNSTYRVVSVLTVLHQDWLNGKEYKCKVSNKGLPSSIEKTISKAKGQPREPQVCTLPPSQEEMTKNQVSLSCAVKGFYPSDIAVEWESNGQPENNYKTTPPVLDSDGSFFLVSKLTVDKSRWQEGNVFSCSVMHEALHNHYTQKSLSLSLGK chain 2: EIVLTQSPATLSLSPGERATLSCRASQSVSSYLAWYQQKPGQAPRLLIYDASNRATGIPARFSGSGSGTDFTLTISSLEPEDFAVYYCQQSSNWPRTFGQGTKVEIKGSTSGSGKPGSGEGSTKGQVQLVESGGGVVQPGRSLRLDCKASGITFSNSGMHWVRQAPGKGLEWVAVIWYDGSKRYYADSVKGRFTISRDNSKNTLFLQMNSLRAEDTAVYYCATNDDYWGQGTLVTVSSESKYGPPCPPCPAPEFLGGPSVFLFPPKPKDTLMISRTPEVTCVVVDVSQEDPEVQFNWYVDGVEVHNAKTKPREEQFNSTYRVVSVLTVLHQDWLNGKEYKCKVSNKGLPSSIEKTISKAKGQPREPQVYTLPPCQEEMTKNQVSLWCLVKGFYPSDIAVEWESNGQPENNYKTTPPVLDSDGSFFLYSKLTVDKSRWQEGNVFSCSVMHEALHNHYTQKSLSLSLGK

Source: patent CN112961245A (CHONGQING PREC BIOTECH CO LTD, dated 2021)
